Values quoted from earlier work, collected in PMC6472649.
Like-named read-outs stand apart in the source and are kept apart here.

How the values were obtained:
[1] = molecular target: SFLLRN ligand (Homo sapiens); test: FD-AFM
[2] = molecular target: SFLLRN ligand (Homo sapiens); test: FD-AFM; remark: listed apart in the source

- Kd [1]: 0.35 µM
- Kd [2]: 40 µM
Substance: PAR1 (from UniProt P25116)
